Target: human GPR49 (LGR5), on cells (human) (UniProt O75473)
Experiment: cell-based or functional assay

Chain of UniProt O75473 (O75473 22-907 limits assumed): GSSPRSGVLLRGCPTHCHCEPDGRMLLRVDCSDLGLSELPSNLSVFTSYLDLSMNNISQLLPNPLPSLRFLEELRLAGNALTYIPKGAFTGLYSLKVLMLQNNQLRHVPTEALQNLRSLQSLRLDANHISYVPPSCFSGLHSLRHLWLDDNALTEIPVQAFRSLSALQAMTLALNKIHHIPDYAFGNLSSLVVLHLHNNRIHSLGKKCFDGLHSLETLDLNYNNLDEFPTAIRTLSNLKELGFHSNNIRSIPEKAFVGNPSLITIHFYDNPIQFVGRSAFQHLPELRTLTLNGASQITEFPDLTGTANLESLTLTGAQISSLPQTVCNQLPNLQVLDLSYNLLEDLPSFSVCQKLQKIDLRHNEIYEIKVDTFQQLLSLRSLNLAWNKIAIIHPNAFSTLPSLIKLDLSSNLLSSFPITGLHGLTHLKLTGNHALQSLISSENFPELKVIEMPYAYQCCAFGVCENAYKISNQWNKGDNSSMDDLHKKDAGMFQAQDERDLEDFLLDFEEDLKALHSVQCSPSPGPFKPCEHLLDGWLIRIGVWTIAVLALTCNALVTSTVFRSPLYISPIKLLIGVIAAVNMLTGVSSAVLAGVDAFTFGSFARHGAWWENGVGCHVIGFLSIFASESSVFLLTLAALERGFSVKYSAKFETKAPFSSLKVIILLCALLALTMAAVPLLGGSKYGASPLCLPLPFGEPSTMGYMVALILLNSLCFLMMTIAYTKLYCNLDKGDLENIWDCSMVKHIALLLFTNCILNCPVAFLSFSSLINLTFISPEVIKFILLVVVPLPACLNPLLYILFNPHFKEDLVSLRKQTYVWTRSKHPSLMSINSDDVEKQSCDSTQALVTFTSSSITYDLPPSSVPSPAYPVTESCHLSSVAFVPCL

increase in proliferation of GPR49-3T3 clone 28: 4 fold
Substance: R-spondin 1 (ligand)
